Target: the molecule itself
Assay: size-exclusion chromatography of the PR-LBD/tanaproget complex

B1: Human progesterone receptor ligand binding domain (PR-LBD), polypeptide following thrombin cleavage of the GST fusion (receptor)
chain: GSPGQDIQLIPPLINLLMSIEPDVIYAGHDNTKPDTSSSLLTSLNQLGERQLLSVVKWSKSLPGFRNLHIDDQITLIQYSWMSLMVFGLGWRSYKHVSGQMLYFAPDLILNEQRMKESSFYSLCLTMWQIPQEFVKLQVSQEEFLCMKVLLLLNTIPLEGLRSQTQFEEMRSSYIRELIKAIGLRQKGVVSSSQRFYQLTKLLDNLHDLVKQLHLYCLNTFIQSRALSVEFPEMMSEVIAAQLPKILAGMVKPLLFHKK
notes: In the size-exclusion run and in the crystal each chain carried the small molecule tanaproget; also called human PR-LBD; PR-LBD (675-933)
B1: binds.

Reference: US20060074081A1 (Pfizer, published 2006)
